Experimental data from patent US8507655.

These binders were tested against PA83 protective antigen (Bacillus anthracis, UniProt P13423) (assay: SPR).
Target sequence in this assay (P13423 30-764): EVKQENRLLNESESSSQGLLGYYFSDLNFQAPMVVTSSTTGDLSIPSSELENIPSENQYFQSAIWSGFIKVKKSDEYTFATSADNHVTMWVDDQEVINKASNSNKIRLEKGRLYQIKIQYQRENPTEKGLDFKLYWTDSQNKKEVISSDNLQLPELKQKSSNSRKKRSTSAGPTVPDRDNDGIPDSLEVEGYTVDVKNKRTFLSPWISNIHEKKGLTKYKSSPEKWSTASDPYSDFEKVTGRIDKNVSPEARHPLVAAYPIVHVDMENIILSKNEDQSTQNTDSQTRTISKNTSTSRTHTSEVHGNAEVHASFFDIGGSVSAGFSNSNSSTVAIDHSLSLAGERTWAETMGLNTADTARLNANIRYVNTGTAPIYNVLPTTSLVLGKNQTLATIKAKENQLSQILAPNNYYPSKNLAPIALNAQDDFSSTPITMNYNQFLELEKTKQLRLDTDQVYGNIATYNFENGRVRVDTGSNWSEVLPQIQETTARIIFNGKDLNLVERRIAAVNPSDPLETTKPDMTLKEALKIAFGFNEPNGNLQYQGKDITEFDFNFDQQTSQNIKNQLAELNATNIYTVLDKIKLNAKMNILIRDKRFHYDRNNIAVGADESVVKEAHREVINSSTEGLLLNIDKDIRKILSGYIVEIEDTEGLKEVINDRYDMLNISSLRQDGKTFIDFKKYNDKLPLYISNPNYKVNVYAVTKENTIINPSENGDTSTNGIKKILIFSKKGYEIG

Binder	Kd [nM]
J24-15 (antibody, V domains shown) VH: QVQLQESGPGLLKPSETLSLTCAVSGDSISGGYYWSWIRQSPGKGLEWIGHIYGSTADTRYNPSLKSRVTISKDTSKNQLSLQLRSVTAADTAVYYCARSGYNFWSGEYYGLDLWGQGAVVTVSS VL: AIQLTQSPSSLSAYVGDKVTITCHASQGINSWLAWYQQKPGKAPKLLIYKARSLQSGVPSRFSGSGSGTDYTLTISSLQSEDFASYYCLQYDSAPLAFGPGTKLDIK	0.88
v2 (antibody, V domains shown) VH: QVQLQESGPGLLKPSETLSLTCAVSGDSISSGYYWSWIRQSPGKGLEWIGHIYGSTADTKYNPSLRSRVTISKDTSKNQLSLQLRSVTAADTAVYYCARSGYNFWSGEYYGLDSWGQGAVVTVSS VL: AIQLTQSPSSLSAYVGDKVTITCHASQGINSWLAWYQQKPGKAPKLLIYKASSLQSGVPSRFSGSGSGTDYTLTISSLQSEDFASYYCLQYDSAPLAFGPGTKLDIK	0.66
J24-7 (antibody, V domains shown) VH: QVQLQESGPGLLKPSETLSLTCAVSGDSISGGYYWSWIRQSPGKGLEWIGHIYGSTADTRYNPSLKSRVTISKDTSKNQLSLQLRSVTAADTAVYYCARSGYNFWSGEYYGLDSWGQGAVVTVSS VL: AIQLTQSPSSLSAYVGDKVTITCRASQGINSWLAWYQQKPGKAPKLLIYKASSLQEGVPSRFSGSGSGTDYTLTISSLQSEDFASYYCLQYDSAPLAFGPGTKLDIK	0.78
35PA83 Fab (parent) (antibody, V domains shown) VH: GPGLLKPSETLSLTCAVSGDSISGGYYWSWIRQSPGKGLEWIGHIYGSTADTRYNPSLKSRVTISKDTSKNQLSLQLRSVTAADTAVYYCARSGYNFWSGEYYGLDSWGQGAVVTVSS VL: TQSPSSLSAYVGDKVTITCHASQGINSWLAWYQQKPGKAPKLLIYKASSLQSGVPSRFSGSGSGTDYTLTISSLQSEDFASYYCLQYDSAPLAFGPGTKLDIK	3.4

Target: PA83 protective antigen (Bacillus anthracis, UniProt P13423)
Assay: SPR
Remark: another data set of the same source
Target sequence in this assay (P13423 30-764): as the sequence (P13423 30-764) above

Binder	Kd [nM]
5.15 (antibody, V domains shown) VH: GPGLLKPSETLSLTCAVSGDSISGGYYWSWIRQSPGKGLEWIGHIYGSTADTRYNPSLKSRVTISKDTSKNQLSLQLRSVTAADTAVYYCARSGYNFWSGEYYGLDSWGQGAVVTVAS VL: TQSPSSLSAYVGDKVTITCHASQGINSWLAWYQQKPGKAPKLLIYKASSLQSGVPSRFSGSGSGTDYTLTISSLQSEDFASYYCLQYDSAPLAFGPGTKLDIK	3.5
5.20 (antibody, V domains shown) VH: GPGLLKPSETLSLTCAVSGDSISGGYYWSWIRQSPGKGLEWIGHIYGSTADTRYNPSLKSRVTISKDTRKNQLSLQLRSVTAADTAVYYCARSGYNFWSGEYYGLDSWGQGAVVTVSS VL: TQSPSSLSAYVGDKVTITCHASQGINSWLAWYQQKPGKAPKLLIYKASSLQSGVPSRFSGSGSGTDYTLTISSLQSEDFASYYCLQYDSAPLAFGPGTKLDIK	12.2
